Where two headings read alike, the source gives them in different places. No end group written: not given here.
T1: AP2-μ2 (μ2 subunit of clathrin-adaptor protein 2, residues 158–435) (Rattus norvegicus, UniProt P84092)
T1 construct: recombinant AP2-μ2 protein (residues 158–435) expressed in E. coli; made in house; host or cells: Escherichia coli BL21(DE3) RIL
T1 sequence (P84092 158-435): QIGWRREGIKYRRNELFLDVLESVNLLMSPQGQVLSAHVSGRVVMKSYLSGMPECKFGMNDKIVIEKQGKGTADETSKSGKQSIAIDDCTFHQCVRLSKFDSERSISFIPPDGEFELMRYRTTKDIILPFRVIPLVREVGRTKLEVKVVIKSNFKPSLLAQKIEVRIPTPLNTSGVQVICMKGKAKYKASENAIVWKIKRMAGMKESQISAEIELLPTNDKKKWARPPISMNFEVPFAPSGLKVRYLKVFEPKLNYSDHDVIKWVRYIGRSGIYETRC

T2: μ2 subunit of clathrin-adaptor protein 2 (AP2-μ2), residues 158–435, wild type (rat, UniProt P84092 158-435)
T2 construct: also called recombinant AP2-μ2; μ2 subunit of rat AP2; source: E. coli BL21(DE3) RIL, purified (Ni-NTA, SEC)
T2 sequence (looked up): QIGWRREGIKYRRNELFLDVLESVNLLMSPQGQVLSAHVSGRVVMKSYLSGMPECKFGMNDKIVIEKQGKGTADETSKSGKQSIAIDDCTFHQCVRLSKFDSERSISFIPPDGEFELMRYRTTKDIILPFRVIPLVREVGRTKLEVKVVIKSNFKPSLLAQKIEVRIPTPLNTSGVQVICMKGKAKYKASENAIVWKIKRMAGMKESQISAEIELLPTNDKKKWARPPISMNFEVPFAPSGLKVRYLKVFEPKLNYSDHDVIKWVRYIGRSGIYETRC

T3: μ2 subunit of clathrin-adaptor protein 2 (AP2-μ2), residues 158–435, wild type (rat, UniProt P84092 158-435)
T3 chain: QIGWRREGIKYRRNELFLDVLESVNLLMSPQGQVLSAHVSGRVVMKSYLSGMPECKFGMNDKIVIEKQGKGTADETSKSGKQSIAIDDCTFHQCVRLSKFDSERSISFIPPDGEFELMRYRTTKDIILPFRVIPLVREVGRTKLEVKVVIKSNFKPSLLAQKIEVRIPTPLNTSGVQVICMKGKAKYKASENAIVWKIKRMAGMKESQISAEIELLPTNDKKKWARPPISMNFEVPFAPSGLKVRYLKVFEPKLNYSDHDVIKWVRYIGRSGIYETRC

T4: AP2-μ2 (residues 158–435) R402A∙K405A mutant (rat, UniProt P84092 158-435, R402A | K405A)
T4 construct: also called R402A∙K405A mutant recombinant AP2-μ2; source: E. coli, purified by the same protocol as the wild-type protein
T4 sequence: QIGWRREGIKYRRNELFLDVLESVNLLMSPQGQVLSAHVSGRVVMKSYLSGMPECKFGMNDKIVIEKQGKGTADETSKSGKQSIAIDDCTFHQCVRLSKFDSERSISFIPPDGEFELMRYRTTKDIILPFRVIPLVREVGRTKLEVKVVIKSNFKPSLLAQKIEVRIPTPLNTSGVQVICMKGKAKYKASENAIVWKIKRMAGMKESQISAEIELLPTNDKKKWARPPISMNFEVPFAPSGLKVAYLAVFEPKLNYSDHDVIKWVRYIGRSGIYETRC


Assays:
[1] = target: T1, AP2-μ2 (μ2 subunit of clathrin-adaptor protein 2, residues 158–435); test: ITC binding of HPV E7-derived synthetic peptides to recombinant wild-type AP2-μ2; conditions: for binding to AP2-μ2 in ITC (result in words): peptide titrated into wild-type recombinant AP2-μ2
Protocol: A DNA fragment encoding residues 158–435 of the μ2 subunit of rat AP2 was cloned into a modified pET28a plasmid (Novagen, USA) to produce a recombinant protein tagged with (His)10−maltose-binding protein. The recombinant protein was expressed in Escherichia coli BL21(DE3) RIL cells (Novagen) grown in Luria-Bertani medium at 18°C for 16 h following induction with 0.5 mM isopropyl β-D-thiogalactopyranoside. Proteins were purified using Ni-NTA affinity chromatography (QIAGEN, Germany), followed by size-exclusion chromatography on a HiLoad 26/600 Superdex 200 prep grade column (Cytiva, USA). The (His)10−maltose-binding protein tag was cleaved by TEV protease and removed during subsequent purification steps. Final protein samples were equilibrated in a buffer containing 50 mM Tris-HCl (pH 7.5), 500 mM NaCl, and 3 mM β-mercaptoethanol. […] Crystals were obtained using the sitting-drop vapor diffusion method at 18°C by from a mixture of 1 μl protein solution (10 mg/ml) and 1 μl precipitant solution. […] X-ray diffraction data were collected at beamlines 5C and 7A of the Pohang Accelerator Laboratory (Korea) and processed using HKL2000 ([Otwinowski and Minor, 1997]). Molecular replacement was performed using Phaser ([McCoy et al., 2007]) with the structure of AP2-μ2 complexed with a PIP5KIγ-derived peptide (Protein Data Bank [PDB] code: 3H85) used as the search model ([Kahlfeldt et al., 2010]). Model building and refinement were performed using Coot ([Emsley and Cowtan, 2004]) and PHENIX ([Adams et al., 2010]), respectively.
Recombinant AP2-μ2 protein harboring R402A∙K405A mutations was prepared and purified using the same protocol as that used for the wild-type protein. […] All peptides were dialyzed against the same buffer used for AP2-μ2 purification. Isothermal titration calorimetry (ITC) was performed using recombinant AP2-μ2 proteins and synthetic peptides as previously described ([Jung et al., 2023]; [Lim et al., 2021]).
Fig. 2. ITC analysis of the effect of the Y-x-x-Φ motif on complex formation. Each peptide (0.2 mM) was titrated into 10 μM recombinant AP2-μ2 as indicated. KD and Ka values were deduced from curve fitting of the integrated heat per mole of added ligand. Mutated residues are highlighted in blue.
Fig. 3. ITC analysis of the effect of the acidic cluster region on complex formation. Each peptide was titrated into wild-type (A) or R402A∙K405A mutant (B) recombinant AP2-μ2 as indicated. KD and Ka values were obtained by curve-fitting of the integrated heat per mole of added ligand. Mutated residues are highlighted in blue. […] Negatively charged cluster residues are marked in red.

[2] = target: integrin α4 (Homo sapiens); test: ITC; conditions: cited from earlier work
PIP5KIγ (Homo sapiens) = test: ITC; conditions: cited from earlier work
[3] = target: T2, μ2 subunit of clathrin-adaptor protein …; test: ITC; peptide titrated into recombinant AP2-μ2; 50 mM Tris-HCl (pH 7.5), 500 mM NaCl, 3 mM β-mercaptoethanol; in Fig. 2 peptide 0.2 mM into 10 μM AP2-μ2; conditions: both partners purified
[4] = target: T3, μ2 subunit of clathrin-adaptor protein …; test: ITC
[5] = target: T4, AP2-μ2 (residues 158–435) R402A∙K405A …; test: ITC; peptide titrated into recombinant AP2-μ2; 50 mM Tris-HCl (pH 7.5), 500 mM NaCl, 3 mM β-mercaptoethanol; in Fig. 2 peptide 0.2 mM into 10 μM AP2-μ2; conditions: both partners purified
[6] = target: T3, μ2 subunit of clathrin-adaptor protein …; test: ITC

Chain of AP2-μ2 (Q96CW1 whole entry): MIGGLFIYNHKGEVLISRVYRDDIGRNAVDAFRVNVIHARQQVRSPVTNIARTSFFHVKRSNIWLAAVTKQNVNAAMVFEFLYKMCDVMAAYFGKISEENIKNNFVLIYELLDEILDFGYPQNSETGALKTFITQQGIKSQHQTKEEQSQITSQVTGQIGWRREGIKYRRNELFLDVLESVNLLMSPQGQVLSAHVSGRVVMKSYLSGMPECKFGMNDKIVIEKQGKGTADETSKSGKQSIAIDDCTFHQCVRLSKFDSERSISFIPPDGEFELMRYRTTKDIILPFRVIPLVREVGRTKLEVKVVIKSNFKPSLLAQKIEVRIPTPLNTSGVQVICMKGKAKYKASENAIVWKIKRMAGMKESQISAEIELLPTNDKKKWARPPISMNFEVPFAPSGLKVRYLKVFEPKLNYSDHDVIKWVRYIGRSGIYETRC

Row | Molecule | binding to AP2-μ2 in ITC (result in words) [1] | Kd [3] [µM] | other results
1 | residues 25–42 of HPV18 E7: 18-mer peptide lacking the Y-x-x-Φ motif, residues 25–42 of HPV18 E7 (LLCHEQLSDSEEENDEID; UniProt P06788 25-42, looked up, fragment) | did not bind | – | –
2 | Y25N: 11-mer HPV16 E7 residues 22–32 synthetic peptide with Y25N mutation (LYCNEQLNDSS) | severely impaired | – | –
3 | Y25H: 11-mer HPV16 E7 residues 22–32 synthetic peptide with Y25H mutation (LYCHEQLNDSS) | severely impaired | – | –
4 | AP2-μ2 (from UniProt Q96CW1) | – | – | Kd [2]: 72 µM; Kd (PIP5KIγ (Homo sapiens)): 6 µM
5 | L28A: 11-mer HPV16 E7 residues 22–32 synthetic peptide with L28A mutation (LYCYEQANDSS) | severely impaired | – | –
6 | LHCYEELSEEETEEEPRF [HPV15 E7(24–41)] | – | – | Kd [1]: 13.3 µM
7 | LYCYEQLNDEE (also called 11-mer phosphomimetic mutant HPV16 E7 peptide; source: synthetic peptide, bought: Dandicure (Korea)) [HPV16 E7(22–32; S31E∙S32E) 11-mer phosphomimetic peptide] | – | 1.54 | –
8 | LYCYEQLNDEEEEEDEID (HPV16 E7 residues 22–39 with S31E and S32E; source: synthetic peptide, bought: Dandicure (Korea)) [HPV16 E7(22–39; S31E∙S32E) 18-mer phosphomimetic peptide] | – | 2.34 | –
9 | LYCYEQLNDSSEEEDEID (HPV16 E7 residues 22–39; source: synthetic peptide, bought: Dandicure (Korea)) [HPV16 E7(22–39) wild-type 18-mer peptide] | – | 3.34 | Ka [4]: 299000 M⁻¹
10 | QPETTDLYCYEQLNDEE (source: synthetic peptide, bought: Dandicure (Korea)) [HPV16 E7(16–32; S31E∙S32E) 17-mer peptide] | – | 1.64 | Kd [5]: 8.26 µM
11 | LYCYEQLNDSS (source: synthetic peptide, bought: Dandicure (Korea)) [HPV16 E7(22–32) wild-type 11-mer peptide] | – | 5.88 | Ka [6]: 170000 M⁻¹
